Columns and labels:
[1] = biological target: T1, human S100A9 binding to human TLR4/MD2 (Homo sapiens, UniProt P06702); test: SPR: inhibition of human S100A9 binding to immobilised human TLR4/MD2; conditions: for inhibition of hS100A9 binding to immobilised hTLR4/MD2: 100 nM hS100A9
T1 construct: purchased R&D Systems (TLR4/MD-2 complex); S100A9 made in house
T1 sequence (P06702 1-114): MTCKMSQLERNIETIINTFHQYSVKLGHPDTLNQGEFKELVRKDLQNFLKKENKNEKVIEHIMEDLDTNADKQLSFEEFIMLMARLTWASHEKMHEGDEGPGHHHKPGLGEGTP
Description: (§1) The SPR analysis was carried out with the Biacore 3000 system (GE Healthcare). Sensor chips, amine coupling kit, immobilization and running buffers, and regeneration solutions were obtained from GE Healthcare. Working solutions of all reagents used for Biacore analysis were prepared in 0.01 M Hepes, 0.15 M NaCl (pH 7.4) containing 0.005% v/v Surfactant P-20 (HBS-P; GE Healthcare) by buffer exchange on Fast Protein Desalting Micro-Spin Columns from Pierce. ABR-215757 was immobilised onto a CM5 chip through an amino-linker (ABR-224649). […] Activity of ligands after immobilisation was tested by injecting specific antibodies (unpublished data). In some experiments, S100A9 was immobilized either by random amine coupling or with a known orientation (i.e., by sulhydryl group conjugation to the only cysteine in S100A9 at position 3).
(§2) Binding to the various surfaces was performed by injecting the analyte at a flow rate of 30 μl/min in a physiological buffer (HBS-P) containing 1 mM Ca^2+ and 10 μM Zn^2+ as proposed for S100A8/9 by Robinson et al.. A typical analysis cycle consists of: (1) pumping running buffer for 1 min to obtain a stable baseline; (2) injection of sample for an appropriate period of time (association); (3) pumping running buffer for 2.5 min (dissociation); (4) injection of a short pulse (30 s) of 15 μl 10 mM glycine-HCl (pH 2.0) (regeneration); and (5) pumping running buffer for 2 min (stabilisation after regeneration) at a flow rate of 30 μl/min. […] In one experiment, S100A9 was injected into a buffer with a fixed Ca^2+ concentration (1 mM) and Zn^2+ in the range 0–50 μM. In a second experiment, Ca^2+ was varied from 0–2 mM at a fixed Zn^2+ concentration (10 μM). In subsequent analyses, regeneration was carried out under more mild conditions, i.e., by injecting 30 μl of HBS-P containing 3 mM EDTA (HBS-EP; GE Healthcare) for 60 s, to prolong the lifespan of the chip.
(§3) Compounds were also injected over the immobilised surfaces in the absence of S100A9 to exclude, or make possible correction for, any direct binding of compound to the surface.
(§4) Evaluation was carried out using BIAevaluation Software version 3.2 (GE Healthcare). The response at steady-state was obtained by fit of sensorgrams to standard binding models, where appropriate, or calculated as responses at late association or early dissociation phase using the Steady state affinity function in BIAevaluation. Affinity was determined from kinetic analysis (on- and off-rates) or as the apparent affinity after plotting responses versus concentration of analyte in a saturation curve. In the inhibition assay format, the competitor concentration yielding 50% inhibition (IC50) was calculated by fitting data to a one-site competition model in GraphPad Prism.

mS100A9 and mLPS-Trap = biological target: T2, mS100A9 and mLPS-Trap (Mus musculus, UniProt P31725); test: SPR: inhibition of mouse S100A9 binding to immobilised mouse TLR4/MD2 fusion protein (mLPS-Trap)
T2 sequence (P31725 2-113 limits assumed): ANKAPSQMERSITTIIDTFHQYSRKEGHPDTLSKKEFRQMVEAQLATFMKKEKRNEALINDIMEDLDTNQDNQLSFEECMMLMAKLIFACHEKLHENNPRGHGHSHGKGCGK
Description: as §1, §2, §3, §4

mouse S100A9 (mouse) = mouse S100A9 (mouse) (UniProt P31725); test: SPR; competition: 100 nM mouse S100A9 injected over amine-coupled mLPS-Trap with soluble mLPS-Trap (100, 200, 400 nM) as competitor
hS100A9 = biological target: T3, hS100A9 (Homo sapiens, UniProt P06702); test: SPR: analytes injected over immobilised hS100A9; assay type: binding
T3 construct: made in house; host or cells: Escherichia coli (or purified from granulocytes)
T3 sequence (P06702 1-114): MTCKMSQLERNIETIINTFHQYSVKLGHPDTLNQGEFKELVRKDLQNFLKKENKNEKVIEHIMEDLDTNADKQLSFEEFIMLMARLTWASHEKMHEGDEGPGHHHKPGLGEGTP
Description: as §1
(B) Left: 100 nM TLR4/MD2 or MD2 injected over amino-coupled hS100A9. […] Fab 43/8 was injected at 50–200 nM to verify activity of immobilized hS100A9 (right). […] (482 KB PDF) Click here for additional data file.

human S100A9 = biological target: T4, human S100A9 (Homo sapiens, UniProt P06702); test: SPR: human S100A9 binding to immobilised ABR-224649 (Q compound), direct binding and displacement; conditions: injected together with S100A9
T4 construct: made in house; host or cells: Escherichia coli (or purified from granulocytes)
T4 sequence (P06702 1-114): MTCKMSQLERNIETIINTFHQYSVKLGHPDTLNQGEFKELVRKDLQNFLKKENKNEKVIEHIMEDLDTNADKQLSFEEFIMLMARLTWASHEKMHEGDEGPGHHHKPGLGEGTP
Description: as §1, §2, §3, §4

[2] = biological target: T5, human S100A9 binding to human RAGE (Homo sapiens, UniProt P06702); test: SPR: inhibition of human S100A9 binding to immobilised human RAGE; conditions: injected together with S100A9
T5 construct: purchased R&D Systems (RAGE/Fc); S100A9 made in house
T5 sequence (P06702 1-114): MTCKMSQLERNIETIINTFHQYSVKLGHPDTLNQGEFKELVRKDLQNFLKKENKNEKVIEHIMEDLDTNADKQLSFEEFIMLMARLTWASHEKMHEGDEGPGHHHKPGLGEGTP
Description: as §1, §2, §3, §4

mouse RAGE/Fc = biological target: T6, mouse RAGE/Fc (mouse, UniProt Q62151-1 23-340); test: SPR; 50 and 100 nM mouse S100A9, or 100 nM mouse S100A8/A9, injected (3 min at 30 ul/min) over mouse RAGE/Fc or mLPS-Trap coupled to the sensor chip; conditions: both partners purified
T6 construct: RAGE, mouse; also called mRAGE; mRAGE/hFc; source: bought: R&D Systems (carrier-free recombinant)

[3] = biological target: T7, recombinant human RAGE/Fc (human, UniProt Q15109 23-342); test: SPR; S100 proteins injected (100 nM, or a range of concentrations; 30 ul/min) over human RAGE/Fc immobilised by amine coupling (~3,000 RU); HBS-P pH 7.4 with 1 mM Ca2+ and 10 uM Zn2+; fit to a 1:1 model with mass transfer; half-maximal binding from responses at late association (apparent); conditions: both partners purified
T7 construct: RAGE (receptor for advanced glycation end products), human; human IgG1 Fc was used as the control for the Fc part; also called hRAGE; rhRAGE/Fc; source: bought: R&D Systems (carrier-free recombinant)

human TLR4/MD-2 complex = biological target: T8, human TLR4/MD-2 complex (human, UniProt O00206 24-631; Q9Y6Y9 19-160); test: SPR; S100 proteins injected (100 nM, or a range of concentrations; 30 ul/min) over human TLR4/MD2 immobilised by amine coupling (~3,000 RU); HBS-P pH 7.4 with 1 mM Ca2+ and 10 uM Zn2+; fit to a 1:1 model with mass transfer; half-maximal binding from responses at late association (apparent); conditions: both partners purified
T8 construct: Toll-like receptor 4, human; MD-2, human; Soluble recombinant complex; also called hTLR4/MD-2; hTLR4/MD2; source: bought: R&D Systems (carrier-free recombinant)
T8 sequence (O00206 24-631, chain 1 of 2): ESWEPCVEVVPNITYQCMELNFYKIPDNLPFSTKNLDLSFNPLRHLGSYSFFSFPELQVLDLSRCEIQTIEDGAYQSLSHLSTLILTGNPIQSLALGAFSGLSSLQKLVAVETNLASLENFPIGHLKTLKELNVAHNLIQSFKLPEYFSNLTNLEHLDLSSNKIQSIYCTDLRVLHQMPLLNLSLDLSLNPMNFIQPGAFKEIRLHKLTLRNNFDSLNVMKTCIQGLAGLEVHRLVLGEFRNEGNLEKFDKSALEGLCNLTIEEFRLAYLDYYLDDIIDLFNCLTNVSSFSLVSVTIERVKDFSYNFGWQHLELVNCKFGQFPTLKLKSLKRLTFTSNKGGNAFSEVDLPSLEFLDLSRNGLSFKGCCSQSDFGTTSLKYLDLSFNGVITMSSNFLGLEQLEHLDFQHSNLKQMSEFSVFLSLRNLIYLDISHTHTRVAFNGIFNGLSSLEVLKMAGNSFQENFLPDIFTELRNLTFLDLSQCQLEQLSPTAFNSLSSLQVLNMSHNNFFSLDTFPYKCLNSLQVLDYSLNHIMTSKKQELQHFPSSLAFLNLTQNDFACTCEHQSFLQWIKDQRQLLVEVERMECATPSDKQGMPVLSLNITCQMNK
T8 sequence (Q9Y6Y9 19-160, chain 2 of 2): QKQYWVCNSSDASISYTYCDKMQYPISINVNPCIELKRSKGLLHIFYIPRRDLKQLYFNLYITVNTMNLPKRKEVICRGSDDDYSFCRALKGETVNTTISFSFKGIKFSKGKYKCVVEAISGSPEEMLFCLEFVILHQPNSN

T6 sequence (Q62151 23-340): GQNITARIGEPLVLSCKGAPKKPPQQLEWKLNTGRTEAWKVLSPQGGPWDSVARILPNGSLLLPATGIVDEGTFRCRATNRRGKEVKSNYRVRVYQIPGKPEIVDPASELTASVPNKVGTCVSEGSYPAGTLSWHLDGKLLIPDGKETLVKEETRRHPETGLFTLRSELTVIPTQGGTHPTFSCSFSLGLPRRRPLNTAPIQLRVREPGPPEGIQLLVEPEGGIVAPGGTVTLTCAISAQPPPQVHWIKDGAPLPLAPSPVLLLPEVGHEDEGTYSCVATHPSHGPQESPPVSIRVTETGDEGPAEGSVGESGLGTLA
T7 sequence (Q15109 23-342): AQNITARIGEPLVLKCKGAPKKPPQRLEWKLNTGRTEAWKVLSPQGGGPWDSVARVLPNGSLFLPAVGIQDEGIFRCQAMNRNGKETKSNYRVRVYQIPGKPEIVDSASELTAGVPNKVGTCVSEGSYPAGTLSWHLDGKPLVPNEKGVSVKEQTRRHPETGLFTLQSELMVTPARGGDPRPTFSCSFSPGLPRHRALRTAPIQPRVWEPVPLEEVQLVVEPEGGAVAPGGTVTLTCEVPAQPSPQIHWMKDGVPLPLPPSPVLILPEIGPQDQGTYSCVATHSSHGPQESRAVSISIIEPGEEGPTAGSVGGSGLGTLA

lipopolysaccharide [LPS, reference compound]
effect on hS100A9 binding to immobilised hTLR4/MD2 ([1]; 200 ng/ml): no effect
effect on mS100A9 binding to immobilised mLPS-Trap (mS100A9 and mLPS-Trap): no effect

mouse TLR4/MD2 fusion protein (mLPS-Trap)
percent inhibition of mS100A9 binding to immobilised mLPS-Trap at 100 nM competitor (mouse S100A9 (mouse)): 22%
percent inhibition of mS100A9 binding to immobilised mLPS-Trap at 200 nM competitor (mouse S100A9 (mouse)): 51%
percent inhibition of mS100A9 binding to immobilised mLPS-Trap at 400 nM competitor (mouse S100A9 (mouse)): 70%

rhMD-2: recombinant human MD-2
binding to immobilised S100A9 (hS100A9): did not
displacement of S100A9 binding to immobilised hTLR4/MD2 ([1]; 200 and 400 nM, unpublished data): No displacement

sTLR4/MD2: recombinant human TLR4/MD-2 complex in solution
Kd (hS100A9; 100 nM analyte, 1:1 model with mass transfer, read-out: KD, binding to immobilised hS100A9): 9.2 nM
inhibition of S100A9 interaction with immobilised Q compound by competitor in solution (human S100A9): inhibit
inhibition of hS100A9 binding to immobilised hTLR4/MD2 ([1]; competitor 200 nM): 55%
inhibition of hS100A9 binding to immobilised hTLR4/MD2 ([1]; competitor 400 nM): 78%
blocking of S100A9 interaction with immobilised TLR4 by competitor in solution ([1]; injected together with S100A9): efficiently block
inhibition of S100A9 interaction with immobilised RAGE by competitor in solution [2]: inhibit

B1: mouse S100A9 (natural protein, UniProt P31725 1-113, looked up)
chain: MANKAPSQMERSITTIIDTFHQYSRKEGHPDTLSKKEFRQMVEAQLATFMKKEKRNEALINDIMEDLDTNQDNQLSFEECMMLMAKLIFACHEKLHENNPRGHGHSHGKGCGK
notes: S100A9, mouse; called homodimeric; also called mS100A9; murine S100A9; source: either produced recombinantly in Escherichia coli or purified from granulocytes
binding result (mouse RAGE/Fc): binds

B2: mouse S100A8/A9 heterodimer (complex)
chain 1: MPSELEKALSNLIDVYHNYSNIQGNHHALYKNDFKKMVTTECPQFVQNINIENLFRELDINSDNAINFEEFLAMVIKVGVASHKDSHKE
chain 2: MANKAPSQMERSITTIIDTFHQYSRKEGHPDTLSKKEFRQMVEAQLATFMKKEKRNEALINDIMEDLDTNQDNQLSFEECMMLMAKLIFACHEKLHENNPRGHGHSHGKGCGK
notes: S100A8, mouse; S100A9, mouse; also called mS100A8/A9; murine S100A8/A9; source: either produced recombinantly in Escherichia coli or purified from granulocytes
binding result (mouse RAGE/Fc): binds

B3: human S100A8/A9 heterodimer (complex)
chain 1: MLTELEKALNSIIDVYHKYSLIKGNFHAVYRDDLKKLLETECPQYIRKKGADVWFKELDINTDGAVNFQEFLILVIKMGVAAHKKSHEESHKE
chain 2: MTCKMSQLERNIETIINTFHQYSVKLGHPDTLNQGEFKELVRKDLQNFLKKENKNEKVIEHIMEDLDTNADKQLSFEEFIMLMARLTWASHEKMHEGDEGPGHHHKPGLGEGTP
notes: S100A8, human; S100A9, human; also called hS100A8/9; S100A8/A9 complex; source: either produced recombinantly in Escherichia coli or purified from granulocytes
Kd [3]: 9.4 nM
Kd (human TLR4/MD-2 complex): 3.8 nM

Source: article PMC2671563 (PLoS Biology, 2009)
